According to the supplement of paper PMC10567573:

B1: ANKRD40 (parent)
chain: VRIQNPSLRENDFIEIELDRQELT

Variants of: B1
Experiment: protein stability index of a GFP-peptide fusion (GPS, HEK-293T) (PSI 1-6); higher = more stable
Settings: c terminus: a fixed tail appended
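Also: lentivirally expressed fusions sorted by FACS into six bins by GFP to DsRed ratio, PSI derived from sequencing read proportions per bin multiplied by bin number.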

Protein stability index, by site and new letter:
E15: R 2.13; Q 2.18; V 1.89; N 3.29; S 2.02; Y 2.04; D 2.95; G 3.02; W 1.97; I 2.45; A 2.38; M 1.95; K 2.47; F 1.82; H 2.94; C 1.87; P 3.49; T 2.27; L 2.25
R20: V 2.29; S 2.08; N 2.77; A 2.31; K 2.75; H 2.32; F 2.96; P 1.76; Y 1.84; G 2.56; T 1.78; C 2.12; D 2.75; Q 2.57; L 2.81; I 2.82; M 2.92; W 1.48; E 2.42
D12: R 2.97; S 1.83; K 2.61; G 1.68; F 2.14; Q 2.1; Y 1.06; H 2.11; L 2.01; P 2.58; A 1.81; N 2.64; E 2.29; I 2.08; M 3.11; C 2.46; V 2.2; T 1.66; W 2.37
Q21: G 2.32; W 1.73; D 1.84; F 1.77; H 2.12; C 2.15; I 1.31; R 2.24; V 1.76; N 2.99; T 2.47; A 2.05; L 1.8; E 2.82; K 2.24; S 2.08; P 2.46; Y 2.32; M 2.01
T24: Y 1.59; P 2.49; K 2.3; I 2.19; F 1.88; N 2.48; M 2.19; D 3.24; L 2.09; H 2.63; R 2.79; Q 3.03; S 2.85; C 2.14; G 2.92; E 3.16; A 2.3; W 1.73; V 2.2
F13: E 4.6; P 4.53; Q 4.32; K 3.72; L 3.42; H 4.08; D 4.61; S 4.39; C 3.15; Y 2.42; G 4.11; T 3.76; N 4.18; W 2.44; I 2.36; V 3.41; A 3.81; M 3.21; R 3.43
D19: M 1.65; H 1.69; I 1.91; Q 2.42; P 2.65; N 1.94; C 1.89; T 1.94; L 2.22; E 2.8; W 1.54; V 1.92; F 1.56; G 1.8; R 2.41; S 1.92; Y 1.83; K 2.24; A 1.93
E17: T 1.86; Q 1.96; W 1.85; P 3.44; D 2.7; V 1.35; F 1.93; N 2.66; L 1.98; A 2.47; K 2.27; G 3.22; C 1.65; M 1.81; S 2.15; R 2.14; Y 2.22; I 1.97; H 2.62
N11: F 1.69; D 2.08; P 2.73; L 1.7; Y 1.71; M 1.99; V 1.97; Q 2.54; G 2.32; A 2.18; T 2.47; E 1.79; R 2.63; W 1.41; S 2.58
